To fix the notation:
T1: extracellular domain (ECD) of recombinant human Sortilin with a C-terminal HIS tag (ECD-huSortilin-HIS) (human, UniProt Q99523 78-755)
T1 construct: Bought (R&D Systems); also called human sortilin-ECD; not shown: C-terminal HIS tag
T1 sequence: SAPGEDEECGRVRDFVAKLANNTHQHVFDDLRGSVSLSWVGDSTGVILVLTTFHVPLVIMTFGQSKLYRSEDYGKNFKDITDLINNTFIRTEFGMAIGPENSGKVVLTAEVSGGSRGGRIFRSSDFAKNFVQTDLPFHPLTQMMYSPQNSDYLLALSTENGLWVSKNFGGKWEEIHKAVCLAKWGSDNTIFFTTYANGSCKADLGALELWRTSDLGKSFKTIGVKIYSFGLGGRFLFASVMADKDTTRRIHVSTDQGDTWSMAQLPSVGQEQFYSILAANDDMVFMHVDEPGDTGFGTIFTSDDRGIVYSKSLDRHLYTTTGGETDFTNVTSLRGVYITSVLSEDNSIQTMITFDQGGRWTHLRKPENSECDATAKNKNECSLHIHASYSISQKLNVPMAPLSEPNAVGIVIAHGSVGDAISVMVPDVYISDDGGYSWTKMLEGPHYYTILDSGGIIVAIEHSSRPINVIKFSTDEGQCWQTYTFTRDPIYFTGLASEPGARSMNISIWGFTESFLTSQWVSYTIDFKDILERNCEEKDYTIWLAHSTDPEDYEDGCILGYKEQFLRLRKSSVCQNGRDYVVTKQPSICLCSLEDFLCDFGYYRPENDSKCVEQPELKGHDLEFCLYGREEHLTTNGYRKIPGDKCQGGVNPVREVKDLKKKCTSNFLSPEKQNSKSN

B1: humanized 5E20 hu5E20VHv3/hu5E20VLv3 (antibody, V domains shown)
VH: EVQLVESGGGLVQPGGSLRLSCAASGFTFSTYGMSWVRQAPGKRLEWVAIISSGGSYTYYSDTVKGRFTISRDNSKNSLYLQMNSLRAEDTAVYYCSRSSSHWYFDVWGQGTLVTVSS
VL: DIQMTQSPSSVSASVGDRVTITCHASQGISSNIGWLQQKPGKAFKGLIYHGTNLKDGVPSRFSGSGSGADFTLTISSLQPEDFATYFCVQYAQFPYTFGQGTKVEKR
notes: Human IgG; also called 5E20H3L3
B2: humanized 5E20 hu5E20VHv2/hu5E20VLv3 (antibody, V domains shown)
VH: B1 VH with R44G
VL: B1 VL
notes: Human IgG; also called 5E20H2L3
B3: humanized 5E20 hu5E20VHv5/hu5E20VLv3 (antibody, V domains shown)
VH: B1 VH with G42D, R87K
VL: B1 VL
notes: Human IgG; also called 5E20H5L3
B4: humanized 5E20 hu5E20VHv2/hu5E20VLv1 (antibody, V domains shown)
VH: B1 VH with R44G
VL: B1 VL with V11L, Q100G, K106I
notes: Human IgG; also called 5E20H2L1
B5: humanized 5E20 hu5E20VHv5/hu5E20VLv4 (antibody, V domains shown)
VH: B1 VH with G42D, R87K
VL: B1 VL with T85D
notes: Human IgG; also called 5E20H5L4
B6: humanized 5E20 hu5E20VHv4/hu5E20VLv3 (antibody, V domains shown)
VH: B1 VH with G42D
VL: B1 VL
notes: Human IgG; also called 5E20H4L3
B7: humanized 5E20 hu5E20VHv1/hu5E20VLv2 (antibody, V domains shown)
VH: B1 VH with V5L, R44G, S78T
VL: B1 VL with K106I
notes: Human IgG; also called 5E20H1L2
B8: humanized 5E20 hu5E20VHv4/hu5E20VLv4 (antibody, V domains shown)
VH: B1 VH with G42D
VL: B1 VL with T85D
notes: Human IgG; also called 5E20H4L4
B9: humanized 5E20 hu5E20VHv3/hu5E20VLv4 (antibody, V domains shown)
VH: B1 VH
VL: B1 VL with T85D
notes: Human IgG; also called 5E20H3L4
B10: humanized 5E20 hu5E20VHv1/hu5E20VLv3 (antibody, V domains shown)
VH: B1 VH with V5L, R44G, S78T
VL: B1 VL
notes: Human IgG; also called 5E20H1L3
B11: humanized 5E20 hu5E20VHv2/hu5E20VLv2 (antibody, V domains shown)
VH: B1 VH with R44G
VL: B1 VL with K106I
notes: Human IgG; also called 5E20H2L2
B12: humanized 5E20 hu5E20VHv1/hu5E20VLv1 (antibody, V domains shown)
VH: B1 VH with V5L, R44G, S78T
VL: B1 VL with V11L, Q100G, K106I
notes: Human IgG (detected or captured with anti-human IgG; huIgG1 control); also called 5E20H1L1
B13: humanized 11M14 hu11M14VHv1b/hu11M14VLv2b (antibody, V domains shown)
VH: EVQLVESGGGLVQPGGSLRLSCAASGFTFNIYGMSWVRQAPGKGLEWVATISSGGIYTYYPDILKGRFTISRDNAKNSLYLQMNSLRAEDTAVYYCARHPGGAMDYWGQGTLVTVSS
VL: DIQMTQSPSSLSASVGDRVTITCRVSENIYSNLAWYQQKPGKSPKLLVYAATNLADGVPSRFSGSGSGTDYTLTISSLQPEDFATYYCQHFWGTPPWTFGQGTKLEIK
notes: Human IgG; also called 11M14H1bL2b
B14: humanized 11M14 hu11M14VHv1b/hu11M14VLv3b (antibody, V domains shown)
VH: B13 VH
VL: B13 VL with L54G
notes: Human IgG; also called 11M14H1bL3b; hu11M14H1bL3b
B15: humanized 11M14 hu11M14VHv2b/hu11M14VLv3b (antibody, V domains shown)
VH: B13 VH with L86G
VL: B13 VL with L54G
notes: Human IgG; also called 11M14H2bL3b
B16: humanized 11M14 hu11M14VHv1b/hu11M14VLv4b (antibody, V domains shown)
VH: B13 VH
VL: B13 VL with L54I
notes: Human IgG; also called 11M14H1bL4b
B17: humanized 11M14 hu11M14VHv2b/hu11M14VLv2b (antibody, V domains shown)
VH: B13 VH with L86G
VL: B13 VL
notes: Human IgG; also called 11M14H2bL2b
B18: humanized 11M14 hu11M14VHv3b/hu11M14VLv3b (antibody, V domains shown)
VH: B13 VH with L81G
VL: B13 VL with L54G
notes: Human IgG; also called 11M14H3bL3b
B19: humanized 11M14 hu11M14VHv2b/hu11M14VLv4b (antibody, V domains shown)
VH: B13 VH with L86G
VL: B13 VL with L54I
notes: Human IgG; also called 11M14H2bL4b
B20: humanized 11M14 hu11M14VHv3b/hu11M14VLv2b (antibody, V domains shown)
VH: B13 VH with L81G
VL: B13 VL
notes: Human IgG; also called 11M14H3bL2b
B21: humanized 11M14 hu11M14VHv3b/hu11M14VLv4b (antibody, V domains shown)
VH: B13 VH with L81G
VL: B13 VL with L54I
notes: Human IgG; also called 11M14H3bL4b
B22: chimeric 11M14 (antibody, human IgG1, kappa, L234A L235A, V domains shown)
VH: EVQLVESGGDLVKPGGSLKLSCAASGFTFNIYGMSWVRQTPDKRLEWVATISSGGIYTYYPDILKGRFTISRDNAKNTLYLQMSSLKSEDTAMYYCARHPGGAMDYWGQGTSVTVSS
VL: DIQMTQSPASLSVSVGETVTITCRVSENIYSNLAWYQQKQGKSPHLLVYAATNLADGVPSRFSGSGSGTQYSLKINSLQSEDFGSYYCQHFWGTPPWTFGGGTKLEIKR

Changes are numbered by the printed parent chain.

The first test has as its target T1, extracellular domain (ECD) of …. Briefly: ELISA, ECD-huSortilin-HIS coated at 1 ug/mL, goat anti-human IgG-HRP, chemiluminescence. Here is the method: 384-well ELISA plates were coated with 1 ug/mL recombinant ECD-huSortilin-HIS (20 uL/well) and incubated overnight at 4° C. all plates were blocked with 3% BSA in PBS for 1 hour at room temperature. Plates were then washed with Tris buffered saline containing 0.1% Tween20 (TBST) three times. 20 uL of humanized anti-Sortilin mAbs diluted 3-fold from 20 ug/mL to 0.3 ng/mL in 1% BSA in TBST were added to the wells, incubated for 1 hour at room temperature and then washed as above. Goat anti-human IgG specific-HRP (Jackson Immunoresearch) diluted 1:7000 in 1% BSA in TBST was then added at 20 uL per well to react with the bound antibodies and plates were incubated for 1 hour before being washed as above. Super signal Pico chemiluminescent ELISA substrate (ThermoFisher) was used for detection. 20 uL of substrate was added to each well and Relative Light Units (RLU) were measured immediately using the SpectraMax Paradigm (Molecular Devices). Data was analyzed and EC₅₀ was calculated using graphed Prism.
In general terms: In an ELISA, binding on a coated surface is turned into a signal by an enzyme label.
As for B1, the EC50 (commonly the concentration that produces a half-maximal response) was found to be 0.09 µg/mL.

For B2, the EC50 worked out at 0.1 µg/mL.

B3: the concentration for a half-maximal effect (EC50) is 0.07 µg/mL.

With B4, the EC50 turned out to be 0.12 µg/mL.

For the molecule B5, the EC50 is 0.05 µg/mL.

As to B6, the EC50 is 0.07 µg/mL.

As to B7, the EC50 was 0.12 µg/mL.

In the case of B8, the concentration giving a half-maximal response (EC50) turned out to be 0.04 µg/mL.

B9: the concentration giving a half-maximal response (EC50) was 0.07 µg/mL.

Take B10: the concentration giving a half-maximal response (EC50) was 0.09 µg/mL.

Regarding B11, the concentration giving a half-maximal response (EC50) came out at 0.08 µg/mL.

B12: the concentration for a half-maximal effect (EC50) stood at 0.12 µg/mL.

With B13, the EC50 amounted to 0.08 µg/mL.

Take B14: the EC50 came out at 0.07 µg/mL.

For the molecule B15, the 50% effective concentration (EC50) is 0.13 µg/mL.

For B16, the concentration for a half-maximal effect (EC50) came to 0.08 µg/mL.

With B17, the EC50 was 0.07 µg/mL.

As for B18, the half-maximal effective concentration (EC50) was 0.23 µg/mL.

For the molecule B19, the EC50 is 0.1 µg/mL.

On to B20, for which the 50% effective concentration (EC50) turned out to be 0.19 µg/mL.

Turning to B21, the EC50 was 0.1 µg/mL.

For the molecule B22, the 50% effective concentration (EC50) was 0.06 µg/mL.

A further test has the same target. Briefly: SPR (Biacore T200), mAb captured by anti-human antibody on CM5, Sortilin 0.1-300 nM as analyte, global 1:1 fit. Here is the method:
Analysis was performed using a Biacore T200 to compare the binding affinity of chimeric and humanized antibodies to recombinant human Sortilin. Anti-Human antibody was immobilized on sensor chip CM5 (GE Healthcare Life Sciences) via amine coupling, and humanized antibodies (ligand) were captured to a level to ensure a maximum binding of analyte of 50 RU (approximately 100 RU of ligand binding). Various concentrations of Sortilin (ranging from 0.1 nM to 300 nM) were passed over the captured ligand at 50 μL/min in running buffer (HBS+0.05% P-20, 1 mg/mL BSA) for 300s association time and 1200s dissociation time. Regeneration of the chip surface was accomplished by 2 short injections of 3M MgCl. Data was blank subtracted to both a sensor not containing ligand and 0 nM analyte concentration. Analysis was performed using a global 1:1 fit with Biacore Insight Evaluation software (v2.0) with bulk refractive index set to zero RU.
In general terms: SPR reads the build-up and loss of mass on a sensor chip optically.
For B1, the Kd (commonly the concentration at which binding is half-saturated) came out at 15.3 nM; the koff (as a rule, a measure of how fast the partners let go of each other) amounted to 0.0028 s⁻¹; the association rate constant (kon) (as a rule, the second-order rate constant of association) is 183000 M⁻¹ s⁻¹.

B3: the Kd stood at 6.01 nM, the koff was 0.0014 s⁻¹ and the on-rate constant (kon) was found to be 233000 M⁻¹ s⁻¹.

Take B5: the Kd worked out at 5.46 nM, the koff worked out at 0.00115 s⁻¹ and the association rate constant (kon) amounted to 211000 M⁻¹ s⁻¹.

With B6, the Kd is 6.36 nM, the koff is 0.00145 s⁻¹ and the kon was 228000 M⁻¹ s⁻¹.

Take B8: the Kd worked out at 5.57 nM, the koff was found to be 0.00117 s⁻¹ and the kon is 209000 M⁻¹ s⁻¹.

Regarding B9, the Kd came to 14.8 nM, the koff worked out at 0.00257 s⁻¹ and the kon came out at 174000 M⁻¹ s⁻¹.

On to B13, for which the equilibrium dissociation constant (Kd) worked out at 5.37 nM, the koff was determined as 0.00193 s⁻¹ and the kon came to 360000 M⁻¹ s⁻¹.

With B14, the Kd was 5.3 nM, the koff came to 0.002 s⁻¹ and the kon was determined as 377000 M⁻¹ s⁻¹.

On to B15, for which the Kd turned out to be 2.99 nM, the koff was 0.00119 s⁻¹ and the kon came out at 398000 M⁻¹ s⁻¹.

Turning to B16, the dissociation constant (Kd) amounted to 5.32 nM, the koff amounted to 0.0019 s⁻¹ and the kon came to 357000 M⁻¹ s⁻¹.

On to B17, for which the Kd came to 2.86 nM, the koff was determined as 0.0012 s⁻¹ and the kon is 421000 M⁻¹ s⁻¹.

Consider B18, for which the Kd worked out at 9.17 nM, the koff came out at 0.00343 s⁻¹ and the on-rate constant (kon) turned out to be 374000 M⁻¹ s⁻¹.

As to B19, the Kd was determined as 2.84 nM, the koff was 0.00117 s⁻¹ and the association rate constant (kon) came out at 413000 M⁻¹ s⁻¹.

As for B20, the equilibrium dissociation constant (Kd) was 7.07 nM, the off-rate (koff) turned out to be 0.00225 s⁻¹ and the kon worked out at 319000 M⁻¹ s⁻¹.

Take B21: the equilibrium dissociation constant (Kd) came to 7.91 nM, the koff is 0.00344 s⁻¹ and the kon was 435000 M⁻¹ s⁻¹.

For the molecule B22, the dissociation constant Kd came out at 2.52 nM.

These data come from patent US20230235048A1 (PROTHENA BIOSCIENCES, published 2023).
